Laboratory results reported in patent US20220153796A1.

Target: HLA-A*24 (human)
Test: UV peptide exchange ELISA

| peptide exchange yield [%] | Binder |
| --- | --- |
| 50 to 75 | VFQEKHHVI |
| > 75 | NYIYSISVF |
| > 75 | LYISEVRNI |
| > 75 | TWFPKTPMLF |
| 50 to 75 | NYAENILTL |
| 50 to 75 | NYIVPDKQIF |
| 50 to 75 | IYHSHHPTL |
| 50 to 75 | LLIKLLQTF |
| > 75 | RFLPSPVVI |
| > 75 | LYPEGLRLL |
| > 75 | YPSIIQEF |
| > 75 | RYPGKFYRV |
| > 75 | RYEGILYTI |
| 50 to 75 | WYGWHFPEL |
| > 75 | MQPRMFFLF |
| > 75 | IYQQIIQTY |
| > 75 | KYFVPPQLF |
| > 75 | VFIDHPVHLKF |
| 20 to 50 | KYSTTFFMV |
| > 75 | RWMDQRLVF |
| > 75 | TYSKKHFRI |
| > 75 | RYLADLPTL |

| peptide exchange yield [%] | Binder |
| --- | --- |
| > 75 | MYINEVERL |
| 50 to 75 | RYKQDVERF |
| > 75 | VYVGAVNRI |
| > 75 | VMPSDSFFF |
| > 75 | IYFRDSSFL |
| > 75 | KYLEESVWL |
| > 75 | KYITNLEDL |
| > 75 | PYTNYTFDF |
| 10 to 20 | LIFMLANVF |
| > 75 | QWPWQASLQF |
| > 75 | VYNDHSIYVW |
| > 75 | KYVKDFHKF |
| 50 to 75 | SYIGLPLTL |
| > 75 | VYMIEPLEL |
| 50 to 75 | QYEPPSAPSTTF |
| > 75 | SYMVLAPVF |
| > 75 | AFPVTSIFHTF |
| > 75 | LYQEILAQL |
| > 75 | AYLSAVGTF |
| > 75 | TYCQNIKEF |
| > 75 | IMPEKFEFW |
| > 75 | YYSPLRDLL |

| peptide exchange yield [%] | Binder |
| --- | --- |
| 50 to 75 | TYLSIFDQL |
| > 75 | NYAIFDEGHML |
| > 75 | KFLGPAEHLTF |
| > 75 | TLPNTIYRF |
| 50 to 75 | RWLPQKNAAQF |
| 50 to 75 | KSSVIASLLF |
| > 75 | KYTNWKAFL |
| 20 to 50 | KQMEDGHTLF |
| > 75 | KYMKIFHKF |
| 10 to 20 | IQMDEPMAF |
| > 75 | SLPDLTPTF |
| > 75 | VYDQYFITL |
| 10 to 20 | AYTLLGHEFV |
| > 75 | KYVKVFDKF |
| > 75 | KYALLLQEL |
| > 75 | QFAAPLRGIYF |
| > 75 | SYPELVKMVW |
| > 75 | VYPASKMFPFI |
| > 75 | KYADYFLEV |
| > 75 | VYSDLHAFYY |

Target: HLA-B*44 (human)
Test: UV peptide exchange ELISA

| peptide exchange yield [%] | Binder |
| --- | --- |
| 50 to 75 | AEMLESVIKNY |
| > 75 | AEMLERVIKNY |
| > 75 | FEYDFLLQRI |
| 50 to 75 | SEFMQVIF |
| 50 to 75 | TDSIHAWTF |
| 50 to 75 | NEHPSNNW |
| > 75 | MEVDPIGHVYIF |
| 50 to 75 | QEMQHFLGL |
| 50 to 75 | YEIEARNQVF |
| 20 to 50 | KEVDPAGHSY |
| 20 to 50 | QEQDVDLVQKY |
